Experimental data: FireProtDB (doi:10.1016/j.bpj.2010.04.076)

Settings: Bacillus subtilis (strain 168), pH 7, CD, transition: 2, reversible: yes, whole UniProt chain shown

B1: Adenylate kinase wild type, P16304 (protein)
chain: MNLVLMGLPGAGKGTQGERIVEDYGIPHISTGDMFRAAMKEETPLGLEAKSYIDKGELVPDEVTIGIVKERLGKDDCERGFLLDGFPRTVAQAEALEEILEEYGKPIDYVINIEVDKDVLMERLTGRRICSVCGTTYHLVFNPPKTPGICDKDGGELYQRADDNEETVSKRLEVNMKQTQPLLDFYSEKGYLANVNGQQDIQDVYADVKDLLGGLKK
In the case of B1, the unfolding free energy (20 °C, GdnHCl, Phosphate buffer 10mM) is reported as 3.34 kcal/mol and the Tm (Thermal, KH2PO4 10mM) is reported as 48.4 °C.
